Data taken from IntAct's records for PubMed 18976727.

B1: Prickle-like protein 1 (Homo sapiens), Q96MT3 (parent)
chain: MPLEMEPKMSKLAFGCQRSSTSDDDSGCALEEYAWVPPGLRPEQIQLYFACLPEEKVPYVNSPGEKHRIKQLLYQLPPHDNEVRYCQSLSEEEKKELQVFSAQRKKEALGRGTIKLLSRAVMHAVCEQCGLKINGGEVAVFASRAGPGVCWHPSCFVCFTCNELLVDLIYFYQDGKIHCGRHHAELLKPRCSACDEIIFADECTEAEGRHWHMKHFCCLECETVLGGQRYIMKDGRPFCCGCFESLYAEYCETCGEHIGVDHAQMTYDGQHWHATEACFSCAQCKASLLGCPFLPKQGQIYCSKTCSLGEDVHASDSSDSAFQSARSRDSRRSVRMGKSSRSADQCRQSLLLSPALNYKFPGLSGNADDTLSRKLDDLSLSRQGTSFASEEFWKGRVEQETPEDPEEWADHEDYMTQLLLKFGDKSLFQPQPNEMDIRASEHWISDNMVKSKTELKQNNQSLASKKYQSDMYWAQSQDGLGDSAYGSHPGPASSRRLQELELDHGASGYNHDETQWYEDSLECLSDLKPEQSVRDSMDSLALSNITGASVDGENKPRPSLYSLQNFEEMETEDCEKMSNMGTLNSSMLHRSAESLKSLSSELCPEKILPEEKPVHLPVLRRSKSQSRPQQVKFSDDVIDNGNYDIEIRQPPMSERTRRRVYNFEERGSRSHHHRRRRSRKSRSDNALNLVTERKYSPKDRLRLYTPDNYEKFIQNKSAREIQAYIQNADLYGQYAHATSDYGLQNPGMNRFLGLYGEDDDSWCSSSSSSSDSEEEGYFLGQPIPQPRPQRFAYYTDDLSSPPSALPTPQFGQRTTKSKKKKGHKGKNCIIS
partner: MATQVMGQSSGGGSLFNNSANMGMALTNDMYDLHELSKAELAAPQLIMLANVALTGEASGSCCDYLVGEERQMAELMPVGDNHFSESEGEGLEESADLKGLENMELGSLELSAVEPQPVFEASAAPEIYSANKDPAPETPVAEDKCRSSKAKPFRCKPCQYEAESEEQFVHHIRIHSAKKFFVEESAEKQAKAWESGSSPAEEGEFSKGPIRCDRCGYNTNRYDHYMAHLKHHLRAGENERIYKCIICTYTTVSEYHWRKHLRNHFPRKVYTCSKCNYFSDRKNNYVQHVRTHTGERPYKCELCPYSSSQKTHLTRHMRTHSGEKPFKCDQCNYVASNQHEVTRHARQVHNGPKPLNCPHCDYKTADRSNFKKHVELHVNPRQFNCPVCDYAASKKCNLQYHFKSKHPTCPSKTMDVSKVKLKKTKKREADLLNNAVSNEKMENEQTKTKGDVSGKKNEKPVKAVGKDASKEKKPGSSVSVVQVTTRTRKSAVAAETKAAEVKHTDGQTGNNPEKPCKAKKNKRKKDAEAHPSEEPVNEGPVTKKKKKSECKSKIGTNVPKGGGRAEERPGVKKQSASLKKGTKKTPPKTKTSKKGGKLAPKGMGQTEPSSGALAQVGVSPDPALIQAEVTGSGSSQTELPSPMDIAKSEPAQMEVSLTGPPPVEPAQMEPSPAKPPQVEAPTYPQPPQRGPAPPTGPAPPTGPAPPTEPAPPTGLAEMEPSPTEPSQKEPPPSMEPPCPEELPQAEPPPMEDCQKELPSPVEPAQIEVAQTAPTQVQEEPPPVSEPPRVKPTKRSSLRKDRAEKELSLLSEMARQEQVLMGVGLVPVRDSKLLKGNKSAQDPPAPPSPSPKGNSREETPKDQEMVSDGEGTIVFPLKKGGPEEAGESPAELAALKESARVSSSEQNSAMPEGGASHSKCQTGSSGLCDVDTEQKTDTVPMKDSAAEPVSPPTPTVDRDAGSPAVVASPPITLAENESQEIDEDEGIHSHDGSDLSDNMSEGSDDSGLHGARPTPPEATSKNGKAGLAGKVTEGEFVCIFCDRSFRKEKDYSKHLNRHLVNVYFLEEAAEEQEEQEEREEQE

Variants of: B1
Conditions: with rest_mouse Rest

effect of a mutation on the interaction | Variant
decreasing interaction | R104Q
